This passage reports fold increase of the apparent affinity with 10 μg/ml heparin against no heparin results from publication PMC3680705.

A value given as a limit tells only on which side of the number the result lay.

For this experiment, the target named is Drosophila Slit D1-4 (the four leucine-rich repeat domains) (Drosophila). Nature of the experiment: ELISA.
Drosophila Slit D1-4 (the four leucine-rich repeat domains) (Drosophila), sequence (P24014 64-922): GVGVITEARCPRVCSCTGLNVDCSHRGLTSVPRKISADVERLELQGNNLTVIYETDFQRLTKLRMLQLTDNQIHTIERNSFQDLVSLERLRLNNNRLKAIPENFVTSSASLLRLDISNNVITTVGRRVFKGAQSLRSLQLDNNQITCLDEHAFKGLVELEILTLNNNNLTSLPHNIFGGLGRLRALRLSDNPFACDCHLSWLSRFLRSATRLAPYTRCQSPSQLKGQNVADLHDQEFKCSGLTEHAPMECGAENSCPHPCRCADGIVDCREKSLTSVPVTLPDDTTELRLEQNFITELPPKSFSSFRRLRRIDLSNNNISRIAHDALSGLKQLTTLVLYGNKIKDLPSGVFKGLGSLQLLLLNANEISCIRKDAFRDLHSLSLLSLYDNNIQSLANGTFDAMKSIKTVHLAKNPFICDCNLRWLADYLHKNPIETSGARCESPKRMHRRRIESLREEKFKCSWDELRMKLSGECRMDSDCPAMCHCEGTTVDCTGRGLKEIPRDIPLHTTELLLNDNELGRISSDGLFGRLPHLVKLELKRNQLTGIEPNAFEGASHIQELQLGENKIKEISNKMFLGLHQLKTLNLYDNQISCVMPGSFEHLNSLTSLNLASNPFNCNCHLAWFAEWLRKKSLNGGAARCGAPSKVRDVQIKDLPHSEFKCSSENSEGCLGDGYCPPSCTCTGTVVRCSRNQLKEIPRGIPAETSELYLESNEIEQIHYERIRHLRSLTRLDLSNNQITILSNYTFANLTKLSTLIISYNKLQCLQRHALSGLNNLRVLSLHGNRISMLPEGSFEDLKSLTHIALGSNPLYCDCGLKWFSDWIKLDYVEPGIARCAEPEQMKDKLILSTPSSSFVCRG

Take Drosophila Robo IG1–5 Fc (Fc fusion): the fold increase of the apparent affinity with 10 μg/ml heparin against no heparin was over 10 fold.
